# Like-named read-outs stand apart in the source and are kept apart here.
# Columns and labels:
# [1] = biological target: Hfq (HfqEc) (Escherichia coli) (UniProt P0A6X3); assay: EMSA
# [2] = test system: HfqCp (Clostridium perfringens); assay: EMSA; conditions: 50 mM Tris-HCl pH 7.5, 100 mM KCl, 10 mM MgCl2, room temperature; […]
# [3] = biological target: Hfq (HfqEc) (Escherichia coli) (UniProt P0A6X3); assay: SHAPE footprinting
# Chain of Hfq (HfqEc) (Escherichia coli) (P0A6X3 whole entry): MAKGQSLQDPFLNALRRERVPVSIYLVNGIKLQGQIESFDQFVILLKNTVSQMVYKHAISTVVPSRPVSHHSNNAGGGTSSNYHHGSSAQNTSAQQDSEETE
substance,measurement,setting,value
glmS mRNA -161 to +21,Kd,[1],30 nM
GlmZ,Kd,"[1]; 50 mM Tris-HCl pH 7.5, 100 mM KCl, 10 mM MgCl2, room temperature, […]",4.5 nM
same,Kd,[2],12 nM
GGUUCUGGCCGGCUAACCCGGUCACAUGGGAUGAGGAGAUAACAUAAUCUCCCUCCCACAAGCAGUAACUAUAAAAAUAACCCCACUCUCUACAAGGCUCGGGGCGCCCGAAAAAACGGGCAUACAGGUUGACCGACAACGAUAUAAAUCGGAAUCAAAAACUAUGUGUGGAAUUGUUGGCGCGAAUAUUAAGCUUGCUCGG [glmS mRNA -161 to +21],Kd,[1],30 nM
GGCCUUCGGGCCAAUUCUGGCCGGCUAACCCGGUCACAUGGGAUGAGGAGAUAACAUAAUCUCCCUCCCACAAGCAGUAACUAUAAAAAUAACCCCACUCUCUACAAGGCUCGGGGCGCCCGAAAAAACGGGCAUACAGGUUGACCGACAACGAUAUAAAUCGGAAUCAAAAACUAUGUGUGGAAUUGUUGGCGCGUCGAUCCGGUUCGCCGGAUCCAAAUCGGGCUUCGGUCCGGUUCAAUAUUGGAUCCGCUCGG [glmS mRNA SHAPE construct],binding,[3],binds
GlmY,Kd,[1],4.3 nM

# — publication PMC3439879
